Columns and labels:
[1] = biological target: T1, Mtb beta-clamp, OregonGreen488-labeled (Mycobacterium tuberculosis, UniProt P9WNU1 1-402); test: fluorescence intensity titration (OregonGreen-labeled protein); apparent Kd; no Mg2+; 20 mM Tris-Cl pH 7.5, 1 mM DTT, 0.2 mM EDTA, 40 mM NaCl, 22 C, 200 or 500 nM labeled clamp; ex 490 nm, em 517 nm; conditions: protein: recombinant, tags: C-terminal 6xHis, OregonGreen488 maleimide, chain copies: 2, label: none in fluorescence assay, 32P in EMSA
T1 sequence: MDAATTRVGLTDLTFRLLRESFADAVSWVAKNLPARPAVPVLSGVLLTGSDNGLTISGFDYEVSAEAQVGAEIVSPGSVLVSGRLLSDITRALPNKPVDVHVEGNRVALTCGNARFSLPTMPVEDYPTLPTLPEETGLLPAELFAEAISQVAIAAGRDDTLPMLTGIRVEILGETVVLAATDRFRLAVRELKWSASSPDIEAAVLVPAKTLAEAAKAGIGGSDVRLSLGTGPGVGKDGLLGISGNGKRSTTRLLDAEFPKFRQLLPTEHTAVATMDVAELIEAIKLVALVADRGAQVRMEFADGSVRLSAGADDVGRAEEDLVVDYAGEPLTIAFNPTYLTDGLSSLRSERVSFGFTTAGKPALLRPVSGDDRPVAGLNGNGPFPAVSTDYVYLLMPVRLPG

[2] = biological target: T1, Mtb beta-clamp, OregonGreen488-labeled; test: fluorescence intensity titration (OregonGreen-labeled protein); apparent Kd; abstract gives 300 nM; no Mg2+; 20 mM Tris-Cl pH 7.5, 1 mM DTT, 0.2 mM EDTA, 40 mM NaCl, 22 C, 200 or 500 nM labeled clamp; ex 490 nm, em 517 nm; conditions: protein: recombinant; tags: C-terminal 6xHis; OregonGreen488 maleimide; chain copies: 2; label: none in fluorescence assay; 32P in EMSA

B1: blunt duplex 18/18 (dsDNA)
DNA 1: CCCATCGTATAGCAAGGG
DNA 2: CCCTTGCTATACGATGGG
In the case of B1, the Kd ([1]; blunt) is reported as 557 nM.

B2: nicked duplex (28-mer template + 18-mer + dA10) (dsDNA)
DNA 1: TTTTTTTTTTCCCTTGCTATACGATGGG
DNA 2: CCCATCGTATAGCAAGGG
DNA 3: AAAAAAAAAA
B2 was tested, and the Kd ([1]; nicked duplex, 18-mer and 10-mer annealed to 28-mer, blunt ends) was 530 nM.

B3: 18/28-mer primed template (mixed)
DNA 1: TTTTTTTTTTCCCTTGCTATACGATGGG
DNA 2: CCCATCGTATAGCAAGGG
B3 gave a Kd [2] of 326 nM.

Source: article PMC3335792, “M. tuberculosis Sliding β-Clamp Does Not Interact Directly with the NAD+ -Dependent DNA Ligase”
